Assay results from the Human Domainome abundance scans (Beltran et al. 2025).
± gives the uncertainty stated by the source.

B1: Tumor protein 63, residues 545 to 610; numbered along this chain, Q9H3D4 (parent)
chain: TDCSIVSFLARLGCSSCLDYFTTQGLTTIYQIEHYSMDDLASLKIPEQFRHAIWKGILDHRQLHEF

Variants of: B1
Assay: abundance fitness (aPCA) (normalised: wild type 0, dead -1); higher = more abundant; growth selection in yeast, the domain comes from the species named
Details: Homo sapiens

Variant	abundance fitness
K55D	-0.072 ± 0.034
K55S	-0.057 ± 0.026
K55A	-0.074 ± 0.027
K55R	-0.059 ± 0.02
K55V	-0.071 ± 0.032
R50W	-0.128 ± 0.027
R50E	-0.159 ± 0.034
R50T	-0.056 ± 0.028
T28P	-0.82 ± 0.055
T28N	-0.087 ± 0.04
T28L	-0.084 ± 0.019
T28Q	-0.012 ± 0.029
T28Y	-0.056 ± 0.029
T28F	-0.063 ± 0.038
T28M	-0.038 ± 0.033
W54R	-0.133 ± 0.068
W54C	-0.363 ± 0.16
W54H	-0.301 ± 0.23
W54T	-0.102 ± 0.26
W54G	-0.248 ± 0.086
W54A	-0.065 ± 0.086
L26C	-0.174 ± 0.025
L26T	-0.272 ± 0.025
L12W	-0.072 ± 0.037

Variant	abundance fitness
L12N	-0.107 ± 0.033
L12F	-0.149 ± 0.048
L12K	-0.146 ± 0.048
L12T	-0.06 ± 0.037
L12Q	-0.074 ± 0.036
L12R	-0.112 ± 0.024
T1F	-0.034 ± 0.13
T1W	-0.047 ± 0.05
T1N	-0.04 ± 0.064
T1S	-0.047 ± 0.027
T1V	-0.058 ± 0.042
T1M	-0.041 ± 0.043
I53F	-0.921 ± 0.089
I53G	-0.979 ± 0.055
Y30S	0.038 ± 0.03
Y30R	0.008 ± 0.024
Y30V	-0.034 ± 0.025
Y30Q	0.029 ± 0.041
Y30W	-0.06 ± 0.044
Y30D	0.009 ± 0.044
Y30L	-0.044 ± 0.02
Y30H	0.057 ± 0.044
S15T	0 ± 0.029
S15H	-0.031 ± 0.038

Variant	abundance fitness
S15D	-0.064 ± 0.055
S15K	-0.037 ± 0.034
S15N	-0.034 ± 0.026
S15L	-0.061 ± 0.025
S15R	-0.052 ± 0.023
H60T	-0.027 ± 0.032
H60C	-0.004 ± 0.037
H60I	-0.045 ± 0.042
H60L	-0.018 ± 0.023
H60K	-0.064 ± 0.03
H60M	-0.011 ± 0.025
H60Y	-0.014 ± 0.037
A41P	-0.734 ± 0.062
A41T	-0.028 ± 0.032
A41D	-0.035 ± 0.03
A41Q	-0.008 ± 0.033
A41C	0.012 ± 0.036
A41N	-0.024 ± 0.091
I29W	-0.052 ± 0.028
I29S	-0.245 ± 0.024
I29H	-0.432 ± 0.066
I29L	-0.027 ± 0.025
I29E	-0.366 ± 0.036
I29G	-0.701 ± 0.035

Variant	abundance fitness
I29F	0.063 ± 0.035
Q62K	-0.021 ± 0.032
Q62T	-0.023 ± 0.028
Q62S	-0.025 ± 0.025
Q62A	-0.011 ± 0.025
Q62N	-0.056 ± 0.039
Q62R	0.006 ± 0.02
Q62D	-0.03 ± 0.033
S4F	-0.158 ± 0.026
S4M	-0.063 ± 0.021
S4T	-0.04 ± 0.019
S4P	-0.17 ± 0.026
F49G	-0.174 ± 0.027
F49V	-0.113 ± 0.021
F49N	-0.058 ± 0.037
F49M	-0.014 ± 0.05
F49T	-0.127 ± 0.026
F49Q	-0.023 ± 0.028
F49W	-0.052 ± 0.036
E33S	-0.052 ± 0.036
E33Y	-0.098 ± 0.064
E33Q	0.013 ± 0.049
Y20R	-0.043 ± 0.022
Y20I	-0.002 ± 0.039

Variant	abundance fitness
Y20D	-0.175 ± 0.038
Y20P	-0.387 ± 0.037
Y20L	-0.044 ± 0.028
L58P	-0.272 ± 0.028
L58M	-0.06 ± 0.043
L58V	-0.006 ± 0.03
L58G	0.002 ± 0.027
D19K	-0.024 ± 0.031
D19W	-0.058 ± 0.03
D19M	-0.086 ± 0.034
D19N	0.004 ± 0.051
D19Q	-0.087 ± 0.056
D19E	-0.015 ± 0.036
D19T	-0.002 ± 0.035
D19G	-0.032 ± 0.031
D38Y	-0.055 ± 0.086
D38K	-0.035 ± 0.13
D38C	-0.082 ± 0.06
D38E	0.004 ± 0.051
G13H	-0.174 ± 0.095
G13E	-0.071 ± 0.04
G13R	-0.077 ± 0.024
G13M	-0.178 ± 0.036
I57Y	-0.918 ± 0.086

Variant	abundance fitness
I57H	-0.899 ± 0.057
I57E	-0.887 ± 0.11
I57V	-0.082 ± 0.023
C17R	-0.838 ± 0.04
C17Y	-0.323 ± 0.031
C17P	-0.784 ± 0.078
C17V	-0.077 ± 0.027
C17K	-0.619 ± 0.043
D59T	-0.111 ± 0.04
T22A	-0.023 ± 0.034
T22N	-0.066 ± 0.046
F8L	-0.052 ± 0.022
F8Y	-0.329 ± 0.048
F8G	-1.01 ± 0.084
F8T	-0.592 ± 0.05
R11N	-0.093 ± 0.037
R11G	-0.071 ± 0.022
R11P	-0.133 ± 0.024
R11D	-0.09 ± 0.029
R11M	-0.111 ± 0.028
S42A	-0.019 ± 0.029
S42M	-0.001 ± 0.023
S42H	-0.011 ± 0.021
S42Q	-0.001 ± 0.038

Variant	abundance fitness
S42C	-0.061 ± 0.035
S42K	0 ± 0.043
S16P	-0.006 ± 0.045
S16A	-0.037 ± 0.021
S16G	-0.023 ± 0.019
S16F	-0.106 ± 0.031
Q31C	-0.159 ± 0.033
Q31K	-0.296 ± 0.064
Q31W	-0.812 ± 0.12
L40P	-0.893 ± 0.062
L40M	-0.134 ± 0.041
L40V	-0.122 ± 0.02
L40K	-1.02 ± 0.3
E47L	-0.022 ± 0.029
E47P	-0.009 ± 0.028
E47F	-0.127 ± 0.053
E47R	-0.054 ± 0.027
E47S	-0.02 ± 0.021
G25M	-0.362 ± 0.031
G25W	-0.733 ± 0.06
G25I	-1 ± 0.14
G25R	-0.093 ± 0.017
G25P	-0.885 ± 0.075
